According to patent US6512004B2, “Promoters of neural regeneration” (The Regents of the University of California, priority 1998, dated 2003):

Test system: growth cones of Xenopus spinal neurons
Test: Growth cone turning in gradients of purified MAG or purified myelin
Assay type: cell-based
Details: purified MAG 150 μg/ml, purified myelin 25 μg/ml in the pipette; with or without Sp-cAMPS, 8-br-cGMP, low Ca2+
Description: FIG. 5. Growth cone turning induced by purified myelin. A gradient of purified myelin (25 μg/ml in the pipette) was applied in normal culture medium (open circles), in medium containing Sp-cAMPS (20 μM, solid circles), or 8-br-cGMP (100 μM, solid squares). Isolated symbols along the abscissa are median values for corresponding data shown above.
FIGS. 6A, 6B. Effects of purified myelin-associated glycoprotein (MAG) on growth cones of Xenopus spinal neurons. A gradient of purified MAG (150 μg/ml in the pipette) was applied in normal culture medium (open circles), in medium containing Sp-cAMPS (20 μM, solid circles), or in medium containing 8-br-cGMP (100 μM, solid squares). (A) Shown are distributions of turning angles under different conditions. Isolated symbols along the abscissa are median values for corresponding data shown above. (B) Shown are distributions of net neurite extension in the gradient under different conditions.
FIGS. 7A, 7B. Effects of reducing external Ca^2+. (A) Purified MAG-induced turning depends on [Ca^2+]o. Shown are distributions of turning angles in normal medium in the absence (solid circles) or presence of Sp-cAMPS (20 μM, solid squares), and in medium containing 1 μM [Ca^2+]o in the absence (open circles) or presence of Sp-cAMPS (20 μM, open squares), respectively. […]
8. […] Only growth cones with a net extension >5 μm over the one-hour period were scored.

B1: purified myelin-associated glycoprotein (MAG): Native MAG purified from myelin after extraction in 1% octylglucoside and DEAE-Sepharose separation (protein, UniProt P07722 20-626, looked up)
Myelin-associated glycoprotein: GHWGAWMPSSISAFEGTCVSIPCRFDFPDELRPAVVHGVWYFNSPYPKNYPPVVFKSRTQVVHESFQGRSRLLGDLGLRNCTLLLSTLSPELGGKYYFRGDLGGYNQYTFSEHSVLDIINTPNIVVPPEVVAGTEVEVSCMVPDNCPELRPELSWLGHEGLGEPTVLGRLREDEGTWVQVSLLHFVPTREANGHRLGCQAAFPNTTLQFEGYASLDVKYPPVIVEMNSSVEAIEGSHVSLLCGADSNPPPLLTWMRDGMVLREAVAESLYLDLEEVTPAEDGIYACLAENAYGQDNRTVELSVMYAPWKPTVNGTVVAVEGETVSILCSTQSNPDPILTIFKEKQILATVIYESQLQLELPAVTPEDDGEYWCVAENQYGQRATAFNLSVEFAPIILLESHCAAARDTVQCLCVVKSNPEPSVAFELPSRNVTVNETEREFVYSERSGLLLTSILTLRGQAQAPPRVICTSRNLYGTQSLELPFQGAHRLMWAKIGPVGAVVAFAILIAIVCYITQTRRKKNVTESPSFSAGDNPHVLYSPEFRISGAPDKYESEKRLGSERRLLGLRGEPPELDLSYSHSDLGKRPTKDSYTLTEELAEYAEIRVK
growth cone turning induced by the purified factor and its modulation: results similar to those with rMAG
